In US20060058231A1 (Xencor, published 2006):
Residue numbers refer to the chain shown, from its start. Names may count otherwise.

T1: BMPRII receptor-Fc fusion (UniProt Q13873 27-151, limits assumed)
T1 construct: BMP receptor-Fc fusion, detected with anti-human IgG-HRP
T1 sequence (looked up): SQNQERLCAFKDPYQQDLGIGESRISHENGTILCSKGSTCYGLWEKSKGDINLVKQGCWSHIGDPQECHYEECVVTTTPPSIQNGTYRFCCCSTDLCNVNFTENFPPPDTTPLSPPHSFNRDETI

T2: BMPRIb receptor-Fc fusion (UniProt O00238 14-126)
T2 construct: BMP receptor-Fc fusion, detected with anti-human IgG-HRP; also called ALK-6
T2 sequence (looked up): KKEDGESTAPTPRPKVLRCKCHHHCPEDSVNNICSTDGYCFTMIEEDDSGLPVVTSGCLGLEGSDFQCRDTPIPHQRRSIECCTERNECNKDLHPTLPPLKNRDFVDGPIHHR

T3: BMPRIb Fc fusion (R&D Systems) (UniProt O00238 14-126)
T3 construct: Bought receptor/Fc fusion; also called ALK-6; not shown: Fc part of the bought fusion
T3 sequence (looked up): T2 sequence (looked up)

T4: BMPRII Fc fusion (R&D Systems) (UniProt Q13873 27-151, limits assumed)
T4 construct: Bought receptor/Fc fusion; not shown: Fc part of the bought fusion
T4 sequence (looked up): T1 sequence (looked up)

T5: noggin Fc fusion (R&D Systems) (UniProt Q13253 28-232, limits assumed)
T5 construct: Bought noggin/Fc fusion; not shown: Fc part of the bought fusion
T5 sequence (looked up): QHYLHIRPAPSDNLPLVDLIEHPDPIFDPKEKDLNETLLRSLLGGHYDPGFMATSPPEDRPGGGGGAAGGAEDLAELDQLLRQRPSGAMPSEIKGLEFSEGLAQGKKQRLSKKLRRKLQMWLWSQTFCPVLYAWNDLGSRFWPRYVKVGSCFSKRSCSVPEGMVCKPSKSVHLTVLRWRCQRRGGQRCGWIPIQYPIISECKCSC

T6: BMPRII receptor/Fc fusion (R&D Systems) (UniProt Q13873 27-151, limits assumed)
T6 construct: not shown: Fc portion of the fusion
T6 sequence (looked up): T1 sequence (looked up)

B1: BMP-7 variant R134S (ligand)
chain: STGGKQRSQNRSKTPKNQEALRMASVAENSSSDQRQACKKHELYVSFRDLGWQDWIIAPEGYAAYYCEGECAFPLNSYMNATNHAIVQTLVHFINPETVPKPCCAPTQLNAISVLYFDDSSNVILKKYRNMVVSACGCH
B2: BMP-7 variant S77P (ligand)
chain: B1 chain with S77P, S134R
B3: BMP-7 variant R134L (ligand)
chain: B1 chain with S134L
B4: BMP-7 variant S77T (ligand)
chain: B1 chain with S77T, S134R
B5: BMP-7 variant R134P (ligand)
chain: B1 chain with S134P
B6: wild type human BMP-7 (R&D Systems) (ligand)
chain: B1 chain with S134R
notes: Bought recombinant protein; It describes BMPs as dimers; also called wt; recombinant human BMP-7
B7: BMP-7 variant 565 (Y65N/F93T/R129D) (ligand)
chain: B1 chain with Y65N, F93T, R129D, S134R
notes: Expressed from the full-length Image clone and processed to the mature dimer; Purified from conditioned media on SP-sepharose; also called v565
B8: BMP-7 variant 504 (Y65N/S120D) (ligand)
chain: B1 chain with Y65N, S120D, S134R
notes: Expressed from the full-length Image clone and processed to the mature dimer; Purified from conditioned media on SP-sepharose; also called v504
B9: BMP-7 variant 526 (K39S/S120D/R134E) (ligand)
chain: B1 chain with K39S, S120D, S134E
notes: Expressed from the full-length Image clone and processed to the mature dimer; Purified from conditioned media on SP-sepharose; also called v526
B10: BMP-7 variant Q53G (ligand)
chain: B1 chain with Q53G, S134R
B11: BMP-7 variant M23N (ligand)
chain: B1 chain with M23N, S134R
B12: BMP-7 variant Q53H (ligand)
chain: B1 chain with Q53H, S134R
B13: BMP-7 variant I86D (ligand)
chain: B1 chain with I86D, S134R
B14: BMP-7 variant 504 (Y65N/S120D) (ligand)
chain: B1 chain with Y65N, S120D, S134R
notes: Purified, unlabeled variant; also called v504
B15: recombinant human BMP-7 (R&D Systems) (ligand)
chain: B1 chain with S134R
notes: Bought protein; also called wild type human BMP-7 (R&D Systems); wt
B16: BMP-7 variant 565 (Y65N/F93T/R129D) (ligand)
chain: B1 chain with Y65N, F93T, R129D, S134R
notes: Purified variant; also called v565
B17: BMP-7 variant 526 (K39S/S120D/R134E) (ligand)
chain: B1 chain with K39S, S120D, S134E
notes: Purified variant; also called v526

Target: T7, ActRIIa receptor-Fc fusion (UniProt P27037 20-134, limits assumed)
T7 construct: BMP receptor-Fc fusion, detected with anti-human IgG-HRP
Experiment: ELISA-like, fixed volume of conditioned media, receptor-Fc

T7 sequence (P27037 20-134 limits assumed): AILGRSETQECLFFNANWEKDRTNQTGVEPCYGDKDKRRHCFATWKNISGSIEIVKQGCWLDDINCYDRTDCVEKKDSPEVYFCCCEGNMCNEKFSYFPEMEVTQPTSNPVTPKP

Row | ActRIIa binding relative to wild type | Binder
1 | 1.17 relative to wt = 1.0 | B1
2 | 0.92 relative to wt = 1.0 | B2
3 | 0.99 relative to wt = 1.0 | B3
4 | 0.99 relative to wt = 1.0 | B4
5 | 0.89 relative to wt = 1.0 | B5

Target: T1, BMPRII receptor-Fc fusion
Experiment: as above

Row | BMPRII binding relative to wild type | Binder
6 | 1.07 relative to wt = 1.0 | B1
7 | 0.85 relative to wt = 1.0 | B2
8 | 1 relative to wt = 1.0 | B3
9 | 0.93 relative to wt = 1.0 | B4
10 | 0.5 relative to wt = 1.0 | B5

Target: T8, BMPRIa receptor-Fc fusion (UniProt P36894 24-152, limits assumed)
T8 construct: BMP receptor-Fc fusion; also called ALK-3
Experiment: as above

T8 sequence (P36894 24-152 limits assumed): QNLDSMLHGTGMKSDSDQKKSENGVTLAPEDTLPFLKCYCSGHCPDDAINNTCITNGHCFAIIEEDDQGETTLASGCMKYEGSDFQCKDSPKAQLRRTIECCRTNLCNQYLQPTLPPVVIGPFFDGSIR

Row | BMPRIa binding relative to wild type | Binder
11 | 1.1 relative to wt = 1.0 | B1
12 | 0.68 relative to wt = 1.0 | B2
13 | 1.03 relative to wt = 1.0 | B3
14 | 0.94 relative to wt = 1.0 | B4
15 | 0.54 relative to wt = 1.0 | B5

Target: T2, BMPRIb receptor-Fc fusion
Experiment: as above

Row | BMPRIb binding relative to wild type | Binder
16 | 1.15 relative to wt = 1.0 | B1
17 | 0.95 relative to wt = 1.0 | B2
18 | 1.02 relative to wt = 1.0 | B3
19 | 0.9 relative to wt = 1.0 | B4
20 | 0.6 relative to wt = 1.0 | B5

Target: T3, BMPRIb Fc fusion (R&D Systems)
Experiment: AlphaScreen competition against biotinylated Y65N/S120D BMP-7
Experimental: (§1) The Y65N/S120D variant of BMP-7 was also biotinylated for use in AlphaScreen assays using NHS-biotin. Bioactivity of the biotinylated protein was confirmed. AlphaScreen assays were performed to determine the binding affinity of selected BMP-7 variants for Fc fusions of the receptors BMPRIa, BMPRIb, ActRIIa, and BMPRII and the inhibitor noggin (R&D Systems). AlphaScreen assays were also performed to determine the affinity of selected variants for an anti-BMP-7 monoclonal antibody (R&D Systems mAb 3541). In all cases, 12-point binding curves were obtained in triplicate. Each data point corresponds to the luminescence produced from a solution comprising 10 uL of serially diluted BMP-7 variant, 10 uL receptor, inhibitor, or antibody, 10 uL biotinylated BMP-7, 10 uL AlphaScreen™ acceptor beads, and 10 uL AlphaScreen™ donor beads. Prism was used to calculate EC50 values for selected experiments.

Row | EC50 [mg/L] | Binder
21 | 0.0499 | B6
22 | 0.0224 | B7
23 | 0.0185 | B8
24 | 0.0363 | B9

Target: T9, ActRIIa Fc fusion (R&D Systems) (UniProt P27037 20-134, limits assumed)
T9 construct: Bought receptor/Fc fusion; not shown: Fc part of the bought fusion
Experiment: as above
Experimental: as §1

T9 sequence (P27037 20-134 limits assumed): as the sequence (P27037 20-134 limits assumed) above

Row | EC50 [mg/L] | Binder
25 | 0.107 | B6
26 | 0.0424 | B7
27 | 0.0475 | B8
28 | 0.0445 | B9

Target: T4, BMPRII Fc fusion (R&D Systems)
Experiment: as above
Experimental: as §1

Row | EC50 [mg/L] | Binder
29 | 0.23 | B6
30 | 0.409 | B7
31 | 0.222 | B8
32 | 0.139 | B9

Target: T5, noggin Fc fusion (R&D Systems)
Experiment: as above
Experimental: as §1

Row | EC50 [mg/L] | Binder
33 | 2.85 | B6
34 | 0.392 | B7
35 | 3.4 | B8
36 | 16.7 | B9

Target: T3, BMPRIb Fc fusion (R&D Systems)
Experiment: AlphaScreen competition; EC50 relative to wild type BMP-7 (R&D Systems)
Experimental: as §1

Row | Fold change vs. wt [fold] | Binder
37 | 0.448 | B7
38 | 0.371 | B8
39 | 0.727 | B9

Target: T9, ActRIIa Fc fusion (R&D Systems)
Experiment: as above
Experimental: as §1

Row | Fold change vs. wt [fold] | Binder
40 | 0.397 | B7
41 | 0.445 | B8
42 | 0.416 | B9

Target: T4, BMPRII Fc fusion (R&D Systems)
Experiment: as above
Experimental: as §1

Row | Fold change vs. wt [fold] | Binder
43 | 1.78 | B7
44 | 0.969 | B8
45 | 0.607 | B9

Target: T5, noggin Fc fusion (R&D Systems)
Experiment: as above
Experimental: as §1

Row | Fold change vs. wt [fold] | Binder
46 | 0.137 | B7
47 | 1.19 | B8
48 | 5.83 | B9

Target: T10, ActRIIa receptor/Fc fusion (R&D Systems) (UniProt P27037 20-134, limits assumed)
T10 construct: not shown: Fc portion of the fusion
Experiment: plate direct binding assay, receptor-Fc detection, 12-point dilution of conditioned media
Experimental: (§2) The affinity of human and variant BMP-7 for several BMP receptors (ActRIa, BMPRIb, ActRIIa, and BMPRII) was measured using an ELISA-like assay, described below. 96-well plates were coated with a capture antibody (R&D Systems BMP-7 ELISA Duoset DY354, part #840971) by diluting the antibody to 2 μg/mL in PBS, applying 50 μL/well, and incubating overnight or over the weekend at 4° C., in a humidified chamber. Excess liquid was removed from each plate. The plates were blocked by adding 175 μL blocking solution (1% BSA and 5% sucrose in PBS) to each well and incubating 1-2 hours at room temperature in a humidified chamber. The plates were then washed using an automated plate washer. 50 μL of BMP-7 containing solution (for example, diluted conditioned media obtained from the BMP-7 expression protocol above, or purified recombinant human BMP-7 of a known concentration) was added to each well and incubated 1.5-2 hours at room temperature in a humidified chamber. The plates were then washed using an automated plate washer. 50 μL of 5 μg/mL BMP receptor-Fc fusion in PBS was added to each well and incubated 1.5 hours at room temperature in a humidified chamber. The plates were then washed using an automated plate washer. 50 μL of 1:10,000 diluted anti-human IgG-HRP conjugate in secondary antibody dilution buffer (1% BSA in PBS, filtered through a 0.2 […] filter) was added to each well and incubated 30 minutes at room temperature in a humidified chamber. The plates were then washed using an automated plate washer. 50 μL of pre-mixed TMB substrate (BD Pharmingen #555214) was added to each well and incubated for 10-20 minutes at room temperature in the dark. 25 μL of 2N H₂SO₄ was added to each well. Absorbance readings at 450 nm were taken using a 540 nm wavelength correction.
(§3) To further characterize receptor binding, dose-response binding assays, using 12-point serial dilutions from conditioned media, were conducted for selected Library 1 variants.

T10 sequence (P27037 20-134 limits assumed): as above

Row | fold increased affinity relative to wild type [fold] | Binder
49 | ~10 | B10
50 | ~10 | B11

Target: T6, BMPRII receptor/Fc fusion (R&D Systems)
Experiment: as above
Experimental: as §2, §3

Row | fold reduced affinity relative to wild type [fold] | Binder
51 | ~10 | B12
52 | ~10 | B13

Target: T11, anti-BMP-7 antibodies of the commercial ELISA (R&D Systems ELISA Duoset Cat#DY354)
T11 construct: also called antibody; ELISA antibody
Experiment: sandwich ELISA (R&D Systems BMP7 ELISA Cat#DY354), BMP-7 protein titrated, % ELISA signal; the EC50 column carries no unit, the concentration axis is in ug/mL

Row | EC50 [mg/L] | Binder
53 | 0.00821 | B14
54 | 0.00112 | B15
55 | 0.00688 | B16
56 | 0.00119 | B17
